According to paper PMC3184076 (2011):

Target: MPR.03 biotinylated peptide (HIV-1, biotin on the C-terminus)
Test: SPR

B1: CAP206-CH12 recombinant human monoclonal antibody (antibody, V domains shown)
VH: QVQLVQSGAEVKKPGSSVKLSCKASGGTFGSYSVTWVRQAPGQTFEWVGRIVPWVGVPNYAPKFQGRVTITADKSSTVYMELTSLRFEDTAVYYCATAYEASGLSYYYYMDDWGKGTTVTVSS
VL: EIVLTQSPGTLSLSPGERATLSCRASQSVTSSYLAWFRHKPGQAPRLLIYGASYRGTGIPDRISGSGSGTDFTLTISRLEPEDFAVYYCQHYGGSPGMYTFGQGTRLEIK
Question: For B1, which koff is on record?
Answer: 0.00012 s⁻¹
